Measured values as given in PMC2190830.

Molecular target: human high affinity Fc gamma receptor, Fc gamma RI (human) (UniProt P12314)
Assay: enzymatic cell-binding assay

UniProt P12314, sequence (P12314 16-374): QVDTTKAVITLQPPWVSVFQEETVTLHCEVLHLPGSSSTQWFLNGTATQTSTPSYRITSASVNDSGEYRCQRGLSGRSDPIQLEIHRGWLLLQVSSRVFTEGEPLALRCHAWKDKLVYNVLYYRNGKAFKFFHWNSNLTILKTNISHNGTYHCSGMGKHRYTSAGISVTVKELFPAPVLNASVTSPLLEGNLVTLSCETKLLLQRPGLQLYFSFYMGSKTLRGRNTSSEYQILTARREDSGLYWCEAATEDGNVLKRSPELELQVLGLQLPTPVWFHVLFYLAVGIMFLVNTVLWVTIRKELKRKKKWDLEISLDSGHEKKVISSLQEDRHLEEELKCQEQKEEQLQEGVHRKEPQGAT

Substance | Ka [M⁻¹] | fold reduction in binding activity relative to IgG1 and IgG3 [fold]
CH1-deleted chimeric anti-dansyl IgG3 (IgG3 ΔCH1) (antibody) | 2e+08 | –
chimeric anti-dansyl IgG3 (murine variable regions, human IgG3 constant region, human kappa light chain) (antibody) | 1.2e+09 | –
chimeric anti-dansyl IgG3 bearing a hinge encoded by the first (unique) gamma 3 hinge exon (IgG3h1) (antibody) | 2.2e+08 | –
chimeric anti-dansyl IgG3(Ser[331]) (antibody) | 3.1e+08 | –
chimeric anti-dansyl IgG4 (murine variable regions, human IgG4 constant region, human kappa light chain) (antibody) | – | 10
chimeric anti-dansyl IgG4(Leu[234]) (antibody) | 3.8e+08 | –
chimeric anti-dansyl IgG4(Leu[234], Pro[331]) (antibody) | 1.3e+08 | –
exon-exchange chimeric anti-dansyl IgG 2232 (IgG2 with a gamma 3 CH2 domain) (antibody) | 2.8e+08 | –
exon-exchange chimeric anti-dansyl IgG 3332 (IgG3 bearing the CH3 domain of IgG2) (antibody) | 1.8e+09 | –
